The values that follow come from patent US20090208538A1 (ROCKEFELLER UNIVERSITY, published 2009).

For experiment [1], the target named is T1, HLA-A*0201 (human).
T1 construct: also called HLA-A2.1; HLA A2.1
Put plainly: iTopia binding.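 Also: each peptide tested for binding to HLA-A2 molecules immobilized on plates, using a commercial screening kit run per its supplied protocol and reagents.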

Experiment [2] concerns the target T1, HLA-A*0201. As to the kind of experiment: iTopia off-rate.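 Also: Half-life of peptide complexes with plate-bound HLA-A2, peptides loaded 18 h at 21 C, washed, then held at 37 C over several time points.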
Experiment [3] addresses T1, HLA-A*0201. Put plainly: iTopia affinity.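 Also: peptide affinity for plate-bound HLA-A2 molecules (iTopia system), with ED50 derived from an eight-point serial peptide dilution series run under binding assay conditions.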
Experiment [4] addresses T1, HLA-A*0201. Put plainly: iTopia net score.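 Also: combined score from peptide binding, ED₅₀ and half-life of peptide complexes with plate-bound HLA-A2 molecules, computed by a proprietary formula in iTopia software.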

Take SLTETIECL [cdr2 114-122 SLTETIECL]: in the experiment with HLA-A*0201 [1], the “binding vs positive control” value is over 30%. Moreover, the t1/2 with HLA-A*0201 [2] worked out at 9.3. This molecule also showed an ED50 in the experiment with HLA-A*0201 [3] of 4 µM. In the experiment with HLA-A*0201 [4], this molecule showed an iScore of 0.518.
